The values that follow come from publication PMC3193378 (European Journal of Immunology, 2011).

In assay [1] the target is T1, soluble CD14 protein (sCD14, aa 1-352) (human, UniProt P08571 20-352).
T1 sequence (looked up): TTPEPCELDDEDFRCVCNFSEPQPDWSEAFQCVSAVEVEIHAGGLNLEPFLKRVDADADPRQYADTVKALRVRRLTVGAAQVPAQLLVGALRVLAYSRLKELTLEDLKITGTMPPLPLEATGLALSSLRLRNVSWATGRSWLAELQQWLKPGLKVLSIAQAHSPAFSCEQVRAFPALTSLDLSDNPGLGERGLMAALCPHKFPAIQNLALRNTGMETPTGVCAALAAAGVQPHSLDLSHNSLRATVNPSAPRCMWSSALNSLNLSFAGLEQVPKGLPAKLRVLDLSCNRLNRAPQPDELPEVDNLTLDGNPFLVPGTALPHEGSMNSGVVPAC
The assay is described as follows: ELISA.

Assay [2] has as its target T1, soluble CD14 protein (sCD14, aa 1-352). The assay is described as follows: pull-down.

B1: 6-His-tagged HMGB1 B box protein (aa 88-162) (domain or fragment, human, UniProt P09429 88-162, looked up)
chain: KFKDPNAPKRPPSAFFLFCSEYRPKIKGEHPGLSIGDVAKKLGEMWNNTAADDKQPYEKKAAKLKEKYEKDIAAY
For the molecule B1, the binding result in assay [1] is reported as “binds”.

B2: GST-HMGB1 (natural protein, human, UniProt P09429 1-215, looked up)
chain: MGKGDPKKPRGKMSSYAFFVQTCREEHKKKHPDASVNFSEFSKKCSERWKTMSAKEKGKFEDMAKADKARYEREMKTYIPPKGETKKKFKDPNAPKRPPSAFFLFCSEYRPKIKGEHPGLSIGDVAKKLGEMWNNTAADDKQPYEKKAAKLKEKYEKDIAAYRAKGKPDAAKKGVVKAEKSKKKKEEEEDEEDEEDEEEEEDEEDEDEEEDDDDE
B2: the binding result in assay [2] is listed as “binds”.
